Assay results taken from paper PMC4319731, “A Lipoxygenase from Red Alga Pyropia haitanensis, a Unique Enzyme Catalyzing the Free Radical Reactions of Polyunsaturated Fatty Acids with Triple Ethylenic Bonds” (PLoS ONE, 2015).

How the values were obtained:
PhLOX2 = biological target: T1, PhLOX2 (Pyropia haitanensis, UniProt R9UEL2); assay: UV absorbance of conjugated diene at […] nm, Lineweaver-Burk; assay type: biochemical; settings: pH 8.0, 20°C, 12 μM enzyme, substrate 20-200 μM; O2 co-substrate
T1 construct: gene lox2; monomer by size exclusion

purified protein [1] = substrate: CC/C=C\C/C=C\C/C=C\C/C=C\C/C=C\C/C=C\CCC(=O)O; assay: purified protein; assay type: biochemical, Pyropia haitanensis; settings: pH 8.0, 20°C, 12 μM enzyme, substrate 20-200 μM, O2 co-substrate
purified protein [2] = substrate: CC/C=C\C/C=C\C/C=C\C/C=C\C/C=C\CCCC(=O)O; assay: purified protein; assay type: biochemical, Pyropia haitanensis; settings: pH 8.0, 20°C, 12 μM enzyme, substrate 20-200 μM, O2 co-substrate
purified protein [3] = substrate: CCCCC/C=C\C/C=C\C/C=C\C/C=C\CCCC(=O)O; assay: purified protein; assay type: biochemical, Pyropia haitanensis; settings: pH 8.0, 20°C, 12 μM enzyme, substrate 20-200 μM, O2 co-substrate

| Km (PhLOX2) [µM] | Molecule | Km (purified protein [1]) [µM] | kcat (purified protein [1]) [s⁻¹] | kcat/Km (purified protein [1]) [M⁻¹ s⁻¹] | Km (purified protein [2]) [µM] | kcat (purified protein [2]) [s⁻¹] | kcat/Km (purified protein [2]) [M⁻¹ s⁻¹] | Km (purified protein [3]) [µM] | kcat (purified protein [3]) [s⁻¹] | kcat/Km (purified protein [3]) [M⁻¹ s⁻¹] |
| --- | --- | --- | --- | --- | --- | --- | --- | --- | --- | --- |
| 151 | CCCCC/C=C\C/C=C\C/C=C\CCCCC(=O)O [GLA] |  |  |  |  |  |  |  |  |  |
|  | PhLOX2 (Pyropia haitanensis) (protein, monomer by size exclusion) MAHTGTLGGSGCGQPLVAALKAHRTVVDGTIDAPVEAVWAKLRDFGGWPAWWPAMGATAVTPPGPPAVGQERAFTANGRSYVEALTWLDEGAHLLEYRLVSADPPLLDAGARTTFEAVPAGARSTRLTVECAFQPAYNVDAGVIRGGQTAAYESIMEGLQHALVEGPPLRPLRLTVTKNELRREVTAGHLLLTMGGVVLHRLRLTGAGTPVSADAVTVQLSRADAELRLELLDAKDTPVAAGSVAVGALTTPPVTHGVVLSNPHGDPVGTYTVSVVNAPPSSTVEAATALLFSLGKSLAEQLLQTVFFMGHDDGRWAYGEYTAADGTALTMPKYCAVLPPSQAIRPERLGQLFARNAEFLYAQAELLKLLVDTNPPGLEELPQAVRDKLAKEAALQKKIKERVTHEPSPFRLTFGGDHPAPERVIETWRDDEEQAAQMIRGINPMKLRRVTDAAAELPPAFHGLRDDAGRDVAALAAANALFYADYAELMVGELDEETGAYHHQAESAVLDSTVGGVKYWYAPRLVVYKTLAGKLSFLGFTLTRRGDAPGDDEMYTAAGTPPVRYTLAKIHLTCADNQVHQFVSHLGMTHLLAEPFIVAAHNVLPPSHIVSALLAVHFQDTIGINFLARQTLVSTVAPLTDATFSVGTGHALSIFAAAYDGWDFLGDNFVGALAKRGFTADAAADGLHDFYYREDGFRVWNALTRYVSTVLHGHYGAGTAADDAVAADPVLAAWCAEMRDPAAAGVASFPAAFTTVGALVEAVVSIIFLCSAQHAAVNFPQRDYVAYVPNRPDSVRLPMPPRPAAGADNDEAVVGATLPDVAVSVFQTLFAHLLTTPSDAPVSSYAALKEDHPAAWGAFTADLAQLQRDIEARNAALVAANEAPYPYLAPENMPLSIDI | 91.59 | 12.6 | 138000 | 54.09 | 62.5 | 1.16e+06 | 114.17 | 47.5 | 416000 |
